# Reference: FireProtDB (doi:10.1371/journal.pone.0110439)
# Details: Homo sapiens, pH 7, transition: 2, structure 1DXX; for ddG of mutation (higher = less stable) / unfolding free energy: Urea; for Tm / change of melting temperature, mutant - wild type (higher = more stable): Thermal
# [1] = 25 °C, Fluorescence, PBS, reversible: yes
# [2] = CD, sodium phosphate 0.1 M, NaCl 0.15 M, reversible: yes
# [3] = Fluorescence, sodium phosphate 0.1 M, NaCl 0.15 M, reversible: yes
substance,measurement,setting,value
"Dystrophin, P11532 K18N",ddG of mutation (higher = less stable),[1],3.7 kcal/mol
same,unfolding free energy,[1],7.5 kcal/mol
same,Tm,"CD, PBS, reversible: no",57.6 °C
same,"change of melting temperature, mutant - wild type (higher = more stable)","CD, PBS, reversible: no",-3.4 °C
same,Tm,[2],57.6 °C
same,"change of melting temperature, mutant - wild type (higher = more stable)",[2],-3.4 °C
same,ddG of mutation (higher = less stable),[2],3.7 kcal/mol
same,unfolding free energy,[2],7.5 kcal/mol
same,ddG of mutation (higher = less stable),[3],3.7 kcal/mol
same,unfolding free energy,[3],7.5 kcal/mol
